Test results from US20250243286A1 (SIXPEAKS BIO, published 2025).
Like-named read-outs stand apart in the source and are kept apart here.

T1: human ActRIIB (human, UniProt Q13705 19-137, limits assumed)
T1 construct: antigen in MSD-SET; also called ACVR2B; ActR2B
T1 sequence: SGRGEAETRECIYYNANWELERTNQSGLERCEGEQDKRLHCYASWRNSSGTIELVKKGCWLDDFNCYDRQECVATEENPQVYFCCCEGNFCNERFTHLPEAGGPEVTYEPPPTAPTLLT


Experiments:
human ActRIIA [1] = target: T2, human ActRIIA (human, UniProt P27037 20-135, limits assumed); experiment: MSD-SET
T2 construct: antigen in MSD-SET; also called ACVR2A; ActR2A
T2 sequence (P27037 20-135 limits assumed): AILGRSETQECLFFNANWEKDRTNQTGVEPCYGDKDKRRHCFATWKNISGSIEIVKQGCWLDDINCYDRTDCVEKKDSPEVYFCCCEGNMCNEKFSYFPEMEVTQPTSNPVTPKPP

human ActRIIB [2] = target: T1, human ActRIIB; experiment: MSD-SET
[3] = target: T3, ActRIIA and ActRIIB (on TGFB/SMAD SBE Reporter HEK293 cells) (human); experiment: cell-based or functional assay
human ActRIIA [4] = target: T2, human ActRIIA; experiment: MSD-SET, preliminary
human ActRIIB [5] = target: T1, human ActRIIB; experiment: MSD-SET, preliminary
human ActRIIA [6] = target: T2, human ActRIIA; experiment: MSD-SET; remark: listed apart in the source
human ActRIIB [7] = target: T1, human ActRIIB; experiment: MSD-SET; remark: listed apart in the source
human ActRIIB [8] = target: T1, human ActRIIB; experiment: affinity measurement
human ActRIIA [9] = target: T2, human ActRIIA; experiment: MSD-SET; remark: listed apart in the source
human ActRIIB [10] = target: T1, human ActRIIB; experiment: MSD-SET; remark: listed apart in the source
human ActRIIA [11] = target: T2, human ActRIIA; experiment: MSD-SET, Fab KD over IgG KD
human ActRIIB [12] = target: T1, human ActRIIB; experiment: MSD-SET, Fab KD over IgG KD
[13] = target: T3, ActRIIA and ActRIIB (on TGFB/SMAD SBE …); experiment: cell-based or functional assay; remark: listed apart in the source
human ActRIIA [14] = target: T2, human ActRIIA; experiment: MSD-SET; remark: listed apart in the source
human ActRIIB [15] = target: T1, human ActRIIB; experiment: MSD-SET; remark: listed apart in the source
[16] = target: T3, ActRIIA and ActRIIB (on TGFB/SMAD SBE …); experiment: cell-based or functional assay; remark: listed apart in the source
human ActRIIA [17] = target: T2, human ActRIIA; experiment: MSD-SET; remark: listed apart in the source
human ActRIIB [18] = target: T1, human ActRIIB; experiment: MSD-SET; remark: listed apart in the source

Row | Binder | Kd (human ActRIIA [1]) [nM] | Kd (human ActRIIB [2]) [nM] | IC50, Activin SMAD RGA [3] [nM] | IC50, Myostatin SMAD RGA [3] [nM] | IC90, Activin SMAD RGA [3] [nM] | IC90, Myostatin SMAD RGA [3] [nM] | Kd (human ActRIIA [4]) [nM] | Kd (human ActRIIB [5]) [nM] | Kd (human ActRIIA [6]) [nM] | Kd (human ActRIIB [7]) [nM] | Kd (human ActRIIA [9]) [nM] | Kd (human ActRIIB [10]) [nM] | IC50, Activin SMAD RGA [13] [nM] | IC50, Myostatin SMAD RGA [13] [nM] | IC50 fold difference to bimagrumab, Myostatin SMAD RGA [3] [fold] | IC90 fold difference to bimagrumab, Activin SMAD RGA [3] [fold] | IC90 fold difference to bimagrumab, Myostatin SMAD RGA [3] [fold] | IC95, Activin SMAD RGA [3] [nM] | IC95, Myostatin SMAD RGA [3] [nM] | IC95 fold difference to bimagrumab, Activin SMAD RGA [3] [fold] | also measured
1 | Antibody Bebballesgmias (antibody, V domains shown, full-length IgG) VH: QVQLVQSGAEVKKPGSSVKVSCKASGYKFTSSYINWVRQAPGQGLEWMGTINPVSGSTSYAQKFQGRVTITADTSTSTAYMELSSLRSEDTAVYYCARGGWFDYWGQGTLVTVSS VL: QSALTQPRSVSGSPGQSVTISCTGTSSDVGSYNYVNWYQQHPGKAPKLMIYGVSKRPRGVPDRFSGSKSGNTASLTISGLQAEDEADYYCGTFAGGSYYGVFGGGTKLTVL | 0.142 | 0.0167 | 0.171 | 0.181 | 2.88 | 1.94 | 0.142 | 0.0167 | 0.067 | 0.0013 | – | – | – | – | – | – | – | – | – | – | IC50, myostatin inhibition (SMAD RGA) [3]: 0.171 nM
2 | Antibody Backstoikäs (antibody, V domains shown, full-length IgG) VH: QVQLVQSGAEVKKPGASVKVSCKASGYKFTSSYINWVRQAPGQGLEWMGTINPVSGSTSYAQKFQGRVTMTRDTSISTAYMELSRLRSDDTAVYYCARGGWFDYWGQGTLVTVSS VL: QSALTQPASVSGSPGQSITISCTGTSSDVGSYNYVNWYQQHPGKAPKLMIYGVSKRPRGVSNRFSGSKSGNTASLTISGLQAEDEADYYCGTFAGGSYYGVFGGGTKLTVL | – | – | 0.18 | 0.0875 | 3.71 | 1.23 | – | – | – | – | – | – | – | – | – | – | – | – | – | – | binding result (human ActRIIB [8]): binds
3 | Antibody Ochsamaulsalat (antibody, V domains shown, full-length IgG) VH: QVQLVQSGAEVKKPGASVKVSCKASGYTFTSSYINWVRQAPGQGLEWMGTINAVSGSTSYAQKFQGRVTMTRDTSISTAYMELSRLRSDDTAVYYCARGGWFDYWGQGTLVTVSS VL: QSALTQPASVSGSPGQSITISCTGTSSDVGSRNYVNWYQQHPGKAPKLMIYGVSKRESGVSNRFSGSKSGNTASLTISGLQAEDEADYYCGTFAGGDYYGVFGGGTKLTVL | – | – | – | 0.653 | 2.51 | 5.59 | – | – | 0.0232 | 0.0082 | 0.02 | 0.01 | 0.43 | 0.55 | – | – | – | – | – | – | Kd (human ActRIIA [14]): 0.02 nM; Kd (human ActRIIB [15]): 0.01 nM
4 | Antibody Soidawürstle (antibody, V domains shown, full-length IgG; also called Soidawüsrstel) VH: QVQLVQSGAEVRKPGSSVKVSCKASGYTFTSSYINWVRQAPGQGLEWMGTINPVSGSTSYAQKFQGRVTITADTSTSTAYMELSSLRSEDTAVYYCARGGWFDYWGQGTLVTVSS VL: QSALTQPRSVSGSPGQSVTISCTGTSSDVGSYNRVNWYQQHPGKAPKLMIYGVSKRESGVPDRFSGSKSGNTASLTISGLQAEDEADYYCGTFAGGRYYGVFGGGTKLTVL | 0.0342 | 0.0055 | – | 0.13 | 2.16 | 6.63 | 0.0345 | 0.0508 | – | – | – | – | – | – | 4.3 | 4.3 | 2 | 8.86 | 35 | 4.3 | IC95 fold difference to bimagrumab, Myostatin SMAD RGA [3]: 1.6 fold; IC99, Activin SMAD RGA [3]: 200 nM; IC99, Myostatin SMAD RGA [3]: 2000 nM; IC99 fold difference to bimagrumab, Activin SMAD RGA [3]: 4.1 fold; IC99 fold difference to bimagrumab, Myostatin SMAD RGA [3]: 1.3 fold; IC50, Activin SMAD RGA [16]: 0.16 nM; IC50 fold difference to bimagrumab, Activin SMAD RGA [16]: 2 fold; IC90, Activin SMAD RGA [16]: 1.81 nM; IC90 fold difference to bimagrumab, Activin SMAD RGA [16]: 0.3 fold; IC95, Activin SMAD RGA [16]: 4.84 nM; IC95 fold difference to bimagrumab, Activin SMAD RGA [16]: 14.9 fold; IC99, Activin SMAD RGA [16]: 19.3 nM; IC99 fold difference to bimagrumab, Activin SMAD RGA [16]: 59.5 fold; Kd (human ActRIIA [17]): 0.0342 nM; Kd (human ActRIIB [18]): 0.0055 nM

The next lines start with results.

Row | Kd (human ActRIIA [1]) [nM] | Kd (human ActRIIB [2]) [nM] | IC50, Activin SMAD RGA [3] [nM] | IC50, Myostatin SMAD RGA [3] [nM] | IC90, Activin SMAD RGA [3] [nM] | IC90, Myostatin SMAD RGA [3] [nM] | Kd (human ActRIIA [4]) [nM] | Kd (human ActRIIB [5]) [nM] | Kd (human ActRIIA [6]) [nM] | Kd (human ActRIIB [7]) [nM] | Kd (human ActRIIA [9]) [nM] | Kd (human ActRIIB [10]) [nM] | IC50, Activin SMAD RGA [13] [nM] | IC50, Myostatin SMAD RGA [13] [nM] | IC50 fold difference to bimagrumab, Myostatin SMAD RGA [3] [fold] | IC90 fold difference to bimagrumab, Activin SMAD RGA [3] [fold] | IC90 fold difference to bimagrumab, Myostatin SMAD RGA [3] [fold] | IC95, Activin SMAD RGA [3] [nM] | IC95, Myostatin SMAD RGA [3] [nM] | IC95 fold difference to bimagrumab, Activin SMAD RGA [3] [fold] | Binder | also measured
5 | – | – | – | – | – | – | – | – | – | – | 0.114 | 0.026 | 1.21 | 2.32 | – | – | – | – | – | – | Fasnetsküchla Fab (Fab, V domains shown, Fab) VH: QVQLVQSGAEVKKPGASVKVSCKASGYTFTSSYINWVRQAPGQGLEWMGTINAVSGSTSYAQKFQGRVTMTRDTSISTAYMELSRLRSDDTAVYYCARGGWFDYWGQGTLVTVSS VL: QSALTQPASVSGSPGQSITISCTGTSSDVGSANYVNWYQQHPGKAPKPMIYGVSRRPSGVSNRFSGSKSGNTASLTISGLQAEDEADYYCGTFAGGKYYGVFGGGTKLTVL | Fold difference (Fab:IgG) (human ActRIIA [11]): 3.9 fold; Fold difference (Fab:IgG) (human ActRIIB [12]): 3.1 fold; IC50 fold difference (Fab:IgG), Activin SMAD RGA [13]: 2.8 fold; IC50 fold difference (Fab:IgG), Myostatin SMAD RGA [13]: 4.8 fold
6 | 0.0404 | 0.0129 | – | 0.75 | 5.34 | 14.7 | – | 0.0293 | – | – | – | – | – | – | 0.7 | 1.8 | 0.9 | 14.2 | 41.5 | 2.7 | Antibody Schwardamaga (antibody, V domains shown, full-length IgG) VH: QVQLVQSGAEVKKPGSSVKVSCKASGYTFTSSYINWVRQAPGQGLEWMGTINAVSGSTSYAQKFQGRVTITADTSTSTAYMELSSLRSEDTAVYYCARGGWFDYWGQGTLVTVSS VL: QSALTQPRSVSGSPGQSVTISCTGTSSDVGSANYVNWYQQHPGKAPKPMIYGVSRRPSGVPDRFSGSKSGNTASLTISGLQAEDEADYYCGTFAGGKYYGVFGGGTKLTVL | IC95 fold difference to bimagrumab, Myostatin SMAD RGA [3]: 1.3 fold; IC99, Activin SMAD RGA [3]: 124 nM; IC99, Myostatin SMAD RGA [3]: 425 nM; IC99 fold difference to bimagrumab, Activin SMAD RGA [3]: 6.7 fold; IC99 fold difference to bimagrumab, Myostatin SMAD RGA [3]: 6.3 fold; IC50, Activin SMAD RGA [16]: 0.46 nM; IC50 fold difference to bimagrumab, Activin SMAD RGA [16]: 0.7 fold; IC90, Activin SMAD RGA [16]: 5.09 nM; IC90 fold difference to bimagrumab, Activin SMAD RGA [16]: 0.8 fold; IC95, Activin SMAD RGA [16]: 12.8 nM; IC95 fold difference to bimagrumab, Activin SMAD RGA [16]: 39.3 fold; IC99, Activin SMAD RGA [16]: 99 nM; IC99 fold difference to bimagrumab, Activin SMAD RGA [16]: 305 fold; Kd (human ActRIIA [17]): 0.0404 nM; Kd (human ActRIIB [18]): 0.0129 nM
